According to article PMC6461989:
Values belong to the binder of their own block, whether it stands above or below them.

Target: human active plasmin (human)
Sequence (P00747 20-580, chain 1 of 2): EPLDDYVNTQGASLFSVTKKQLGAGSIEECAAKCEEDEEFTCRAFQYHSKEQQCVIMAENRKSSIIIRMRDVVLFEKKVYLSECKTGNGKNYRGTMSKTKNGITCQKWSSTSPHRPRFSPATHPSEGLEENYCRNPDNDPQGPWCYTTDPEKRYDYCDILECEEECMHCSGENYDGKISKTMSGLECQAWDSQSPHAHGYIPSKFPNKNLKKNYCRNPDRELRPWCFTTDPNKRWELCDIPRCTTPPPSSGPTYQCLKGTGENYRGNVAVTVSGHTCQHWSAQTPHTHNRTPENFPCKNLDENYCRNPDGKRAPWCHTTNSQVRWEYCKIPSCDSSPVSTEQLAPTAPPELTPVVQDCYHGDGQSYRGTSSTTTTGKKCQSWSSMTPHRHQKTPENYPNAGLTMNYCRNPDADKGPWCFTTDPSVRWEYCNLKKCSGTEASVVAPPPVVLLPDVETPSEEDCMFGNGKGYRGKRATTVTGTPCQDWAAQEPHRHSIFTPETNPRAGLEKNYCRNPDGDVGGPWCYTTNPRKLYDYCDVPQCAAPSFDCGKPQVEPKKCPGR
Sequence (P00747 581-810, chain 2 of 2): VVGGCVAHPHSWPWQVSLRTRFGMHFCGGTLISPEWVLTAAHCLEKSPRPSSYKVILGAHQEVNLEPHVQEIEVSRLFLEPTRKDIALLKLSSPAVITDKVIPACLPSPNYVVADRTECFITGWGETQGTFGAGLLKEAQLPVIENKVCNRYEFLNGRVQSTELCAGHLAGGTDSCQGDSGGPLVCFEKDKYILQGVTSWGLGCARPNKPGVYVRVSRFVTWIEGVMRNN

- inhibition of plasmin activity in the presence of equimolar uPA and plasminogen, ratio of HAI-2 to uPA/plasminogen 1:1 (~20% inhibition) to 10:1 (Supplementary Figure S13A): 75%
- inhibition of plasmin activity, high ratio of HAI-2 to plasmin (Supplementary Figure S13B): 66%
B1: recombinant HAI-2 (rHAI-2) proteins containing the extracellular region of HAI-2 (domain or fragment)
chain: ADRERSIHDFCLVSKVVGRCRASMPRWWYNVTDGSCQLFVYGGCDGNSNNYLTKEECLKKCATVTENATGDLATSRNAADSSVPSAPRRQDSEDHSSDMFNYEEYCTANAVTGPCRASFPRWYFDVERNSCNNFIYGGCRGNKNSYRSEEACMLRCFRQQENPPLPLGSK

- inhibition of plasmin activity, low ratio (~40%) to high ratio of α-2-antiplasmin to plasmin (Supplementary Figure S13B): > 99%
B2: α-2-antiplasmin (natural protein)
chain: NQEQVSPLTLLKLGNQEPGGQTALKSPPGVCSRDPTPEQTHRLARAMMAFTADLFSLVAQTSTCPNLILSPLSVALALSHLALGAQNHTLQRLQQVLHAGSGPCLPHLLSRLCQDLGPGAFRLAARMYLQKGFPIKEDFLEQSEQLFGAKPVSLTGKQEDDLANINQWVKEATEGKIQEFLSGLPEDTVLLLLNAIHFQGFWRNKFDPSLTQRDSFHLDEQFTVPVEMMQARTYPLRWFLLEQPEIQVAHFPFKNNMSFVVLVPTHFEWNVSQVLANLSWDTLHPPLVWERPTKVRLPKLYLKHQMDLVATLSQLGLQELFQAPDLRGISEQSLVVSGVQHQSTLELSEVGVEAAAATSIAMSRMSLSSFSVNRPFLFFIFEDTTGLPLFVGSVRNPNPSAPRELKEQQDSPGNKDFLQSLKGFPRGDKLFGPDLKLVPPMEEDYPQFGSPK
